Data on 41 sequences can be found in the nanobody polyreactivity screen of Harvey et al. (2022).

This series can be described thus: yeast display, Sf9 membrane polyspecificity reagent, FACS + sequencing; frameworks hold sequencing errors. In short, it runs like this:
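Genes from sorted yeast were amplified by colony PCR, read by MiSeq 2 × 250 sequencing and filtered on CDR length. These cells carried a synthetic nanobody library in Saccharomyces cerevisiae BJ5465 and were sorted by FACS into low and high (top ~1%) gates on anti-HA and streptavidin fluorescence. Polyreactivity is labelled according to the gate of origin.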
For the sequence “QVQLVESGGGLVQAGGSLRLSCAASGRTFFVNAMGWYRQAPGKERELVATITFSGDSTYYADSVKGRFTISRDNAKNTVYLQMNSLKPEDTAVYYCAVRWPSARIPVKLDYWGQGTQVTVSS”, the “polyreactivity (PSR sort gate)” value is listed as “high polyreactivity”. The entry for “QVQLVESGGGLVQAGGSLRLSCAASGINFGYYTMGWYRQAPGKDREFVAAITANGGRTYYADSVKGRFTLSRDNAKNTVYLKMNSLKPEDTAVYYCNARTYTYRGSFDYWVQGTQVTVSS” is “high polyreactivity”. The entry for “QVQLVESGGGLVQAGGSLRLSCAASGSIFYQYAMGWYRQARGKERELVAAITWDGSRTYYADSVKGRFTISRDNAKNTVYLQMNSLKPEDTAVYYCNANLAWRRYDGTYNYWGQGSQVTVSS” is “high polyreactivity”; for “QVQLVESVGGLVQAGGSLRLSCAASGSTLDGNPMGWYRQAPGKERELVAAISRSGTSTYYADSVKGRFTISRDNAKNTVYLQMNSLKPEDTAVYYCNKVGYIAFDYWGQGTQVTVSS” it is “low polyreactivity”.

Turning to “QVQLVESGGGLVQAGGSLRLSCPASGSIFFYAMGWYRQAPGKERELVADITYTGGSKYADSVKGRFTISRDNAKNTVYLQMNSLKPEDTAFYYCANLDGGLFDYWGQGTQVTVSS”, the “polyreactivity (PSR sort gate)” value was “low polyreactivity”. For “QVQLVESGVGLVQAGCSLRLSCAASGFTNAMGWYRQAPGKERELVAAISYSGDSTNYADSLKGRFTISRDNAKNTVYLQMNSMKPVDTAVYYCNASSPYDYDWGQGTQVTVSS” the value was “low polyreactivity”. For “QVQLVESGGGLVQAGGSLRLSCAASGSILGGNSMGWYRQATGKERVLVAAITFSGGGTYYADSVKGRFTISRDNAKKTVYLQMNSLKPEDSAVYYCAADKDGYTYEFDYWGQGTQVTVSS” the value was “low polyreactivity”. Take “QVQLVESGGGLVQAGGSLRLSCAASGYIFGQYAMGWYRQAPGKERELVAAIRRSGGRTYYADSVKGRFTISRDNAKNTVYLQMNSLKPEDTAVYYCNKGPPQTSWRTTLFDYWGQGTQVTVSS”: the “polyreactivity (PSR sort gate)” value is “high polyreactivity”. The entry for “QVQLVESGGGLVQAGGSLRLSCAASGYTIYYYAMGWYRQAPGKERELVARITSGGSTYYADSVKGRFTISRDNAKNTVYLQMNSLKPVDTAVYYCNVEVSVEVAYWGQGTQVTVSS” is “low polyreactivity”; for “QVQIVESGGGLVQAGGSLRLTCAASGSIFGYYAMGWYRQAPGKERELVAAITTGGSTSYADSVKGRFTISRDNAKKTVYLQMNSLKPEDTAVYYCNARFKLLFGRADDYWGQGTQVTVSS” it is “low polyreactivity”. Turning to “QVQLVESGGGLVQAGGSLRLSCAASGTFYYAMGWYRQAPGKEREFVAAISWRGGTTYYADSVKGRFTMSRDNAKNTVYLQMNSLKPEDTAVYYCATAPYVTSRRYGPYEYWGQGTQVTVSS”, the “polyreactivity (PSR sort gate)” value is listed as “low polyreactivity”. The entry for “QVQLVESGGVLVQAGGSLRLSCAASGIIFFGYAMGWYRQAPGKERELFAAISYSTGGTSTYADSVKGRFTISRDNAKNTVYLQKNSLKPEDTAVYYCAVRRQYRRAYSFSQSRYDYWGQGTQVTVSS” is “high polyreactivity”; for “QVQLVESGGGLVKAGCSLRLICAASGSIFYQYAMGWNRQAPGNVRELVAAITRRGSRTYYADSVKGRFTISRDNAKNTVYLQMNSLKPEDTAVYYCAAGSFYGIYYYRTDDYWGQGTQVTVSS” it is “high polyreactivity”. With “QVQLVESGGGLVQAGGSLRVSCAASGNIFYYYAKGWSRQAPGKERELDAAISKRGGSTYYADSVKGRFTISRDIAKNTVYLQMNSLKTEVTAVYYCAADGGYADYDYWGQGTQVTVSS”, the “polyreactivity (PSR sort gate)” value was “high polyreactivity”. The entry for “QVQLVESGGGLVQAGGSLRLSCAASGSIFQAYAMGWYRQAPGKERELVAAITASGTRTYYADSVKGRFTISRDNAQNTVYLQMNSLKPEDTAVYYCAAGTYRWGFGVRSAMDYWGQGTQVTVSS” is “high polyreactivity”; for “QVQLVESGGGLVQAGGSLRLSCAASGLIFSYYAMGWYRQAPGKERELVAAITGSGGSTYYADSVKGRFTISRDNAKNTVYLQMNSLKPEDTAVYYCAAGRYAYTLSRKYDYWGQGTQVTVSS” it is “high polyreactivity”; for “QVQLVESGGGLVQAGGSLRLSCAASGFIFRWYAMGWYRQAPGKERELVAAISRSGDSTYYADSVKGRFTISRDNAKNTVYLQMNSLKPEETAVYYCAADDRYYTYGYDYWGQGTQVTVSS” it is “low polyreactivity”. The entry for “QVQLVESVGGLVQAGGSLRLSCAASGRPSNRYAMGWYRQAPGKERELVAAISGRGGSTYYADSVKGRFTISRDNAKNTVYLQMNSLKPEDTAVYYCAKQWYVAKISYDYWGQGTQVTVSS” is “high polyreactivity”; for “QVQLVESGGGLVQAGGSLRLSCAASGFTFSWYAMGWYRQAPGKERELVAAINADGGTTYYADSVKGRFTISRDNAKNTVYLQMNSLKPEDTAVYYCAVPYPYGYEYDHWGQGTQVTVSS” it is “low polyreactivity”.

With “QVQLVESGGGLVQAGGSLRLSCAASGRILGYNARGWYRQAPGKEREFVATISKRTGSTRYADSVKGRFTISRDNAKNTVYLQMNSLKPEDTAVYYCAAYYGRFYGKYDYWGQGTQVTVSS”, the “polyreactivity (PSR sort gate)” value is on record as “high polyreactivity”.

In the case of “QVQLVESGGGLVQAGGSLRLSCAASGFTISYYAMGWYRQAPWKEGELVAAIRKSGATTDYADSVKGRFTISRDNAKNTVYLQMNCMKPEDTAVYYCNAKNDQRSLGFDFWRQGTQVTVSS”, the “polyreactivity (PSR sort gate)” value is on record as “high polyreactivity”. “QVQLVESRGGLVQAGGSLRLSCAASGSIFSFYAMGWYRQAPGKERELVATITSGGSTYYADSVKGRFSISRDNAKNTVYLQMNSLKPEDTAVYYCAARGNFGANPGRKHGFDYWGQGTQVTVSS”: the “polyreactivity (PSR sort gate)” value was “high polyreactivity”.

For “QVHLVESGGGLVQAGGSLRLSCAASGFTFGVYAMGWYRQAPGKEREFVAAISTTVGSTYYADSVKGRFTISRDNAKNTVYLQLNSLKPEDTAVYYCAAEYTGYINYYIYEYWGQGTQVTVSS”, the “polyreactivity (PSR sort gate)” value is recorded as “low polyreactivity”. The entry for “QVQLVESGGGLVQAGGSLRLSCAASGSTFVDYAMGWDRQAPGKERELVAGINGSGGSTYYADSVKGRFTISRDNAKNTVYLQMNSLKPEDTAVYYCAKDGSNRLALPAWDYNYWGQGTQVTVSS” is “low polyreactivity”; for “QVQLVESGGGLVQAGGSLRLSCAASGSTFDRNVMGWYRQAPGKERELVAAISFSGGSTYYADSVKGRFTISRDTAKNTVYLQMNSLKPEDTAVYYCAADDGYSYIYAAGDYWGQGTQVTVSS” it is “low polyreactivity”. For “QVQLVESGGGLVQAGGSLRLSCAASGYILTHYAMGWYRQAPGKERELVAAITSSGGSTYYADSVKGRFTISRDNAKNTVYLQMNSLKPEDTAVYYCAADAGQQEYDYWGQGTQVTVSS” the value was “low polyreactivity”. The entry for “QVQLVESGGGLVQAGGSLRLSCAASGSTFDIYAMGWYRQAPGKERELVAAITFSGGSTYADSVKGRFTISRDNAKNTVYLQMNSLKPEDTAVYYCAVDGGEFSSYGYWGQGTQVTVSS” is “low polyreactivity”. As to “QVQLVESGGGLVQAGGSLRLSCSASGIIFRGYAMGWYRQAPRKERELVAGITSGGDTNYADSVKGRFTISRDNAKNTVYLQMNSLKPEETAVYYCNVALQAKGMGYWGQGTQVTVSS”, the “polyreactivity (PSR sort gate)” value is “low polyreactivity”. The entry for “QVQLVESGGGLVQAGGSLRLSCAASGFTFDRYAMGWYRQAPGKERELVAAISRSGGSTHYADSVKGRFTISRDNAKNTVYLQMNSLKPEDTAVYYCNKRWYYDGYDYWGQGTQVTVSS” is “high polyreactivity”. The entry for “QVQLLESGGGLVQAGGSLRLSCAASGSTLARYTMGWSRQAPGKERELVATIDFGGVNTYYADSVKGRFTISRDNAKNTVYLQMNSLKPEDTAVYYCAVDNPFIWFFGPDEYWGQGTQVTVSS” is “low polyreactivity”. For “QVQLVESGGGLVQAGGSLRLSCAASGRIFYTNGMGWYRQAPGKERELVAAISYNGGRTYYADSVKGRFTISRDNAKNTVYLQMNSLKPEDTAVYYCNKRGDYQFHFDYWGQGTQVTVSA” the value was “low polyreactivity”; for “QVHLVESGGGLVQAGGSLRLSCAASGSTIDIYDMGWYRQAPGKERELVAAISIGTYADSVKGRFTISRDNAKNTVYLQMNSLKPEDTAVYYCAAQTDTWGYGYDYWGQGTQVTVSS”, “high polyreactivity”. As to “QVQLVESGGGLDQAGGSLRLSCAASGRIFSRYTMGWYRQAPGKERELVAAISSGGGSNYADSVKGRFTISRDNAKNSVYLQMTSLNPEDTEVYYCNARSWLSRGYGYWGQGTQVTVSS”, the “polyreactivity (PSR sort gate)” value is “high polyreactivity”. Turning to “QVQLVEAGGGLVQAGGSLRLSCAASGLIIAKYAMGWYRQAPGKERELVAGITSGGGTSYADSVKGRFTISRDNAKNTVYLQMNSLKPEDTAVNYCNAVVVGWFYQYDYWGQGTQVTVSS”, the “polyreactivity (PSR sort gate)” value is recorded as “low polyreactivity”. The entry for “QVQLVESGGGLVQAGGSLRLSCAASGRTFSLNAMGWYRQAPGKERELVAAINRGGTTYYADSVKGRFTISRDNAKNTVYLQMNSLKPEDTAVYDCAARVWGRWAGSYAWWHGYNSWGQGTQVSVSS” is “high polyreactivity”; for “QVQLVESGGGLVQAGGSLRLSCAASGLIFGGYAMGWYRQAPGKERELVAAISWDDGDTYYADSVKGRFTISRDNAKNTVYLQMNSLKPEDSAVYYCAAESLSGAHGYWGQGTQVTVSS” it is “low polyreactivity”. The entry for “QVQLVESGGGLVQAGGSLRLSCAASGNIFIYNAMGWNRQAPGKERELVAAISVSGGDTYYADSVKGRFTISRDNAKYTVYLQLNSLKPEDTAVYYCAAEAEYIELDYWGQGTQVTVSS” is “low polyreactivity”; for “QVQLVESGGGLVQAGGSLRLSCAASGSNFDIYAMGWSRQAPGKERELVAAISWNGGDTTYADSVKGRFTISRDNAKNTVYLQLNSLKPEDTAVYYCAADLGYWVADYYWGQGTQVTVSS” it is “high polyreactivity”; for “QVHLVESGGGLVQAGGSLRLSCAASGRIFADYAMGWYRHAPGKERELVAAISSTSSTNYADSVKGRFTISRDNAKNTVYLQMKSLKPEDTAVYYCAATAGSLTADYVSYTYNYWGQGTQVTVSS” it is “low polyreactivity”.

Regarding “QVQLVESGGGLVQAGGSLRLSCAASGGIFLVNDMGWYRPAPGKEWELVAAITSGGGTYYADSVKGRFTISRDNAKNTVYLQMNSLKPEDTAVYYCARDTYRQIVSNESYGYWGQGTQVTVSS”, the “polyreactivity (PSR sort gate)” value is on record as “low polyreactivity”. For “QVQLVESGGGVVQAGGSHRLSCAASGSIFSSDAMGWYRQAPGKEREFVAAISSSGDSTYADSVKGRFTISRDNAKNTVYLQINSLKPEDTAVYYCAVGGAGSDDYWGPGTQVTVSS” the value was “low polyreactivity”.
